This note sets out measurements from the NTF2 design screens of Basanta et al. (2020).

The series is described as follows: protease stability score; higher = more stable; yeast display proteolysis, trypsin and chymotrypsin.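 Note: log10 excess protease needed over predicted unfolded state with 0 meaning unfolded.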
Regarding “DEELVEQLKKMYENEKNGDPDKVHEQFDKDARIDIGEKQVRGRDQASREAERERKQINVEIKHVDIKAHNGRATIDMVIVFNINGQPHRRRVTVYAVLHNGKIKSMSRHMDPSEQDQLTQ”, the protease stability score worked out at 0.343.

“DDRDRKKQMSKLIEIFKEGDPRKWMELLDENARIQIGDTRIRGREHASDWLKKLRDHVDSISIHDMEVDGNHIRVVIEVVIDGRSAVYKFVVHLKNGKVKHVDVSATSKEHENNMSR” registered a protease stability score of 1.5.

In turn, “DDSENRNFHQFVRDWTTGNPEKLAELADENARVNVGDKTVHGRDHIRTLFEKLIRRMDIELRDVKFQKSNGEISIKARMVLNENGRPKEFVMKNNAQAEGEKIKNFVLNDDS” gave a protease stability score of 0.048.

Turning to “DEELFELLRELLKAEQTGDEERLSQLVDKDVSVKIGDHVIHGRDQFAKHASERHKQMDVKVRIDSYEVRGDQVEASMTVVHDHNGRPHKDTVTLQAKYDNGKIKEMRFDFDTTVLKKIES”, the protease stability score came out at 0.609.

With “DEKAMDKVRKVKEIEDEGDSDEFNKMFDPNARFNVGDKSVHGMETYVDQLSKELKRLKRSVRIKSMHAEGNRVDMTVKYEVDVNGRPYRAQVHIIYTFHNGHFSHVTYRLDPQSQREFQK”, the protease stability score came to 0.017.

With “EDNRLQEIMEKFIRLMQTGDDHTAANLFDEDARIEYGDHSIRGREEFQKYAKELKDRVDHFDVQTIKNRGDEVHIDVNIHVDGKRVRVNMVVQAENGKVKKLRLDPEVVRHMEK”, the protease stability score was 1.3.

Consider “DDERITELVTRFEKALQRGDNDEMERLMDPNARVRYGDKEYHGREDIKRALKEEKKRVDHFRLESVRWKNGHVEIFMKFTVNGRTEHRVFDIQLHNGRMKEMELTTS”, for which the protease stability score worked out at 1.15.

As for “EEENVKVAQEIINIEDRGDSDQIHRLFDPNAHWTVGDQDIHGRETWLTKFRKEREEMRVRFRTLHFNAHNGRAVVRVEQEVTHNGTPTTKVYIMKVEFRNGKVKSIVFQSDG”, the protease stability score is 0.235.

With “DDHDAKRAAKHVENGDPEQITNLFDEDARVHIGDFRIHGREDAKKWADHYRDQVDHLEYEDYRISGDTVVIVFQINVNGKRVRLRLEFRVHNGRIKEMTVEFTSEDDEKRVLKIMS”, the protease stability score came to 0.531.

On to “DEDEKMKRAMKKLNEVQNTGNEKTLANLMDPNARMDIGDKRYHGREQVTTAVKDIQRRVDHVEWRLTDLKQDGDKLDAKADVIFRTNGTQTNRHADMKLRDVNGQLVIVEYVIS”, for which the protease stability score was -0.093.

As for “DERQLDLLRQFLHAVQHGDEDRLKELADPNAKFTVGDKTIHGMNTFARTVKRRRDQARFQYNVKSMEADGDKMEVRIQLHVDVNGRPINVEFTARAHVDGDKLKSLELRIPEEVLKKQES”, the protease stability score turned out to be 0.037.

Consider “DEDRKAREFIHDEQRAFEQNNPDDIVRLADPNVRVNIGEHDVRGHEDFKKWVDELLEKYDQINFKVTSVSVRGDHIEATVMIQNQKNGEDDTHVVLITLKDHNGRLLIEMIQER”, for which the protease stability score came out at 0.315.

With “DPKRTVKVAEEAAKILYNGDSDKAKKVFKPDLRVKIADRETQGVEQIVKELEKFQKIGVERETKEKRTEGDKVQFHTVYRNGSDQAKMTVEYQAKDGKVDRIQVDYDEKAKKIQEDG”, the protease stability score is -0.407.

For the sequence “DDEARRVAETVMTAVSRGDEEKVKEMFDPNARFRVGNKEISGRENYADWLRKLQEHARVDVSDVKAKDQGDEVTAKVRFVLSVDGTPHTMNVDVHFSVDNGKIIDYKQRFDEDDLRRILK”, the protease stability score was -0.155.

“DEDSQTKLAELFITALEEGDPELANKNVDENARADVGDKTLHGREDVSRMVHDLRRRADHIQVETLEVRNGRVDAIIVIDVNGKKVRFRMEIEIHNGRIKHLRMKSE” came in with a protease stability score of 0.653.

“DEDAQRQVEELLKAEHEGDPKKFQELADPNVNAIYGDKRVHGRETLADQLAERVREMRVHYDSIDLRVRGNKVNVHINAKFKYNGVPIEISMTVVFVFHNGRLQRREVSIPEEVQTELTR”: the protease stability score stood at 0.129.

“DEDLERKVKELMEVLKSGDESKWMEMVDPNARVQVGDTEIHGRENRREDLKRHKEDSRLDLKSYNVRVHNGQVEVHMSYTYEHNGQPRTSQATARFQLHNGRITEVNVNTTK”: the protease stability score is -0.309.

Consider “DEKALRSAEEWVRQLNENNEDTLMKLADPNAEFSIGDKTVHGREQLREWIKKTLDKMHVHVKDVKYTDSGDKAQIDIDRVNEHNGRPDEDNVEMTMHLDNGTIHSVDVRKKS”, for which the protease stability score was -0.303.

As for “DDQLRKKVKTFIRVIQSGNTQEAKKLMDPNARYHVGDKTVDGMDQWATIMTKLKDEMRIQLNVTSVTATNGHIHVRVEVNVDVNGRPINVTVNVYFHIENGRIQRVHYQMDPDEFKHIQR”, the protease stability score was -0.135.

The sequence “DEELEEQVKEFFHAIETGDEDKLRELADPNARFHVGEKNLHGMKDVAERIRREREHIRYTVQIDSIKADGNRAHVRVVAEKEHNGNPRHFVLNVEIVRHNGRIRKVEATEDK” gave a protease stability score of 0.938.

The sequence “DEEVKDFAEKMLKNWHTGNWQHFAKLLDENAKIVIGDKRYHGTENFERMADSIQKQMSIRIESMSVEVHGEKAKFSATVVENHNGNPTRFHISAEVTVRGDKVDHFNQQNDS” gave a protease stability score of 1.04.

The sequence “DEEARKLVHRILEAWKHGDEEHFKEQFDPNVDVDVGDKRYHGRHTIATRVQRELDEIDIRIEVHHITVEGDRADMDATVVLNINGKPVHVRVTWVFQITNGVAVYMQLRVSEDQRREQES” yielded a protease stability score of 1.15.

“DDRVADLLRKWWEAVRTGDPDRAANQVDPNAKVEYGDKQVHGREQIRTELDERKRNAKFEYKIKTYNKDEDHVKVEAEAVVVINGRPHKFTYQVHARADGDKIKHMRIELPEDVLHEMQG”: the protease stability score was 0.553.

“DEEQVEHMRRIVQEGDFDELKDNADPNARVQVGDKRYHGREQVQHVMKNFRDKADHVEISSIKQDEDHVSAEMHVEVNGERFVIRIHFVVHNGRLEQINIQVTSERDQKKLKKMLD”: the protease stability score is 0.185.

With “DKHQMHILKSIVENEQKGDEKSVSKMVDPNARFHVGDKRISGREQKDEDVQRKKDEIRVQIDKVEFNHSNGRVVVNMDMTIDRNGKPKTFKAQAHATFHNGTATSQTQTNDG”, the protease stability score is -0.614.

Regarding “DSQERADDWMRDFNRAVQHGDPTQLTDLMDKDANARIGDTSVHGRHHLVTRWQQFRTDVDRVDIHIVSIEVQGDKIHIDMTFQADVNGRRKEDHIVIIAVDRNGKVKVQQIQDK”, the protease stability score was -0.337.

In the case of “DEELRKNFHTFLELMKNGNPEKLAEMADPNVRVNIGDEQLRGKHRLHQHARHLKHSLRFDYQSVDVKVTGNRVDANLRVVVKVNGKPIDYTVKIHITWRNGKIKTMEIKIPEDDQKKMRR”, the protease stability score is -0.089.

As for “DDKDADHVQRALRNLERGDPEKADTMFDPNAHVRIGDKEIHGREQLNHWVERVHTEMRQRWDFKDVNEHENHVQIDVSITTEKNGQPRSKHVKLNARVNNGTVTSVEQQDDG”, the protease stability score was -0.164.

Sequence “DEDHQAEKIFRDLVEAFKNGDEKRAEELFDPNARLQYGDKTYHGRKAASRLVSHVRTEFDHVDWQIKSVTRTGDKIDIDVDATADHNGHQDKFKIIITLKVTNGKAVLKEVRFK” had a protease stability score of 1.94.

“DEEHRAKTAQDDIRRINQNGDPDQMHRLADKDARIQIGDTFLHGREQIKEQMERDNKKFDHQQVEIKKVEVRGDKVRIVAEIKADFNGDNKTTRFVIYLTVKNGRVKMKKVTDG”: the protease stability score is -0.194.

On to “DEDFDTQLEEMLKNILNGNTEEIDKYADPNVKLEVGDHEYHGREHVKENWKEELDHMDVEVKSVHISARDGRAHVNLEFVVNIDGRPRHVKVREEFVWKNGKLKRANRHFSEEVKRQLER”, for which the protease stability score is 0.677.

“DTDAVRRALKFIDAMQDGDPDKARELMDPNARVNIGDKEYHGMTSFVKDLKRLRDEIRVQYNIRDYNAQGEKIHVTVDVVFEHNGRPVDERFNVTIDIQGDKIKQVTAHRTK” yielded a protease stability score of 1.61.

“DEDVKKLFEDWLRALQTNNPDEVNEMADPNVTVKVGNKVVHGREQLNKDLKEETKHIRVTYHHVDLTVHNGRAKARLDVTVNVNGRPVRFQFNVTVHARNGRVVSMHVQIPHEVLETIKQ” yielded a protease stability score of 1.57.

Turning to “EDQVIRMVKELWKALRKNNPEKFKDLADKNARFEYGDKHVRGRENMQERMEQQVRDQEVDMRVERVEDRGDHVDVKFEKVVNHNGTPSSHSMTAVYVAENGRLKNVRVKETK”, the protease stability score is -0.103.

As for “DEETEDKARRFVEAFHTGDPKNINRLMDKDARMKYGDTTVHGRHQIDKWIKELKDEIRIELDRVEIRADNGRVTAELDMVFDVNGKPVKHTLVFIFQFHNGRMHEVKIRIDEDVLRKLKR”, the protease stability score was 0.746.

For “DNRLQRWADRWLEVVETGNPEEIRKLVDKDVDVEIGDQQYKGQDHLSKQWKDFHKHAKLEIKDYKIDVEGDRLVINVDAVYNVNGQPRRNRYNLEFKLHNGKVRSVHFRIDPDEQRKMDS”, the protease stability score came to 1.44.

For “DRKAKEFAETLYDIFQRGNFENFLELIDKNVTVDVGDRTLHGRQAHEFAKEFQKEQLKVEVDDWHVDNQGEKVRITMTFVLHVNGRPQKQRQEQRFHLHNGRIKSLQVKTDE”, the protease stability score is -0.156.

In the case of “DEDDANRVAQEILRALIEGDEKKVADLVDEDARISIGDHKFRGREQIREAVREFTEEVDHVKLESITADNGHAEATAILDINGKNQRVTFHVEVHNGRAKEVSMTSG”, the protease stability score was determined as 1.05.

“DEEERAKNFMKQLIDVAQRGDKENAKRLFDENARVEVGDKTYRGRRRVATFLMELSERADHMEMRIQSFDISGDKFDLVLKVERHHNGRQQSFQLKVVATVRNGNLVIVHVRMG”: the protease stability score stood at 2.49.

On to “DEDANKVMKKVVEAIKEGDPDTIRKLVDPNARVNVGDTTVNGREEFARQNHEKMNQSRIHYLSMDFEQREGHAVVTVRFEKHHNGKPDTDRYRATANFKNGKLTEYKQKEDG”, for which the protease stability score was -0.291.

Take “DEKRQQDQAKKIADALSTGDEDQFLQNMDPNAHVRVGDKTFHGRDDVRRMLREVNEHVDEINVHDVSVHNGQVDAVLVWEHNGRKQRKKVVVDRHNGRVHSVEIRDQ”: the protease stability score is -0.189.

Regarding “DEEDAKNAVRAVEALVTGDPDKMSKLFDKHASVEVGDKRVRGREEIRELAEQLEREMRLRVEIKHVQIQGDKVDVKFDAQRHHNGRPDDNKQTMHLTAHDGRVKNMSITSNG”, the protease stability score was -0.376.

“DEERMHQLEKLFRTNNFEEFAKQADKDVTAKVGNETYTGREDMEKFARRLREQVDSIHYDRVEVKGDKFKADAQFDFNGKRVRFTVEVEFHNGKLQHMRMQATTHELEETLAKLLS”: the protease stability score is 1.41.

With “DEDHLHRLVKEMVKVLQQGDPDRFMELADKDATAVIGDKRFHGRTQARKAVKEFTDTVDHIRIKTFNAHGDKVTIVVRLDHNGKNAILRIEFQVDNGRFKEVVFDPDHLQDLRR”, the protease stability score was determined as 0.071.

Take “DEDHESRVVELLEEIVRKGDPDEVRRQADPDARVDYGDKRLHGRDFRKAAKIIEEMRVDHQQFTTYKTHNGRAQMLVTVEHNGERRDIQIIVHYRGDKMKEMRFDTG”: the protease stability score was -0.224.

Turning to “DESLRSKAEEFLKAIEHGDPDEASRQLDPNARFEIGDKEITGRETFDRTMHETRNQMRLEVKSYDARASNGRVHMEVRFQATHNGQPQDNREVQDFQFSNGRIERVSVEKDS”, the protease stability score was -0.463.

On to “DEEEWKELNKEISRIDQHGDERDLARLVDENAKIQIGDKTIRGREDLEKQFDRLRDRFDHIQVQHVENQGDKIRVEVVQRHNGRDETHVKTVKLENGRIKHMEMQHK”, for which the protease stability score is -0.186.
